Patent US20070243589A1 (Pfizer, published 2007)

T1: human IL-22 (human, UniProt Q9GZX6 34-179)
T1 sequence: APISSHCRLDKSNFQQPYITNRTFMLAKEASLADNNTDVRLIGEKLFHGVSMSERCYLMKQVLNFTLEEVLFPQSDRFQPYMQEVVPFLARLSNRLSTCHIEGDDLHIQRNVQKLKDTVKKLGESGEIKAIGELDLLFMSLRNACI

T2: IL-26 (human, UniProt Q9NPH9)
T2 construct: coated on the ELISA plate at 1 µg/ml; also called human IL-26
T2 sequence (cytokine, looked up): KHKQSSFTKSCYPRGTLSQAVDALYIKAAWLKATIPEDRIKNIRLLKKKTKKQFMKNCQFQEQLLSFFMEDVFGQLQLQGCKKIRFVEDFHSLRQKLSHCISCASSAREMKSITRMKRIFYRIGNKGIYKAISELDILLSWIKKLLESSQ


Columns and labels:
human IL-22 [1] = target: T1, human IL-22; assay: cell-based or functional assay
BSA = target: T3, BSA (bovine, UniProt P02769); assay: ELISA: wells labelled BSA, IgG at 1 µg/ml, HRP anti-human IgG, A450
T3 construct: background wells labelled BSA; also called bovine serum albumin
T3 sequence (P02769 25-607 limits assumed): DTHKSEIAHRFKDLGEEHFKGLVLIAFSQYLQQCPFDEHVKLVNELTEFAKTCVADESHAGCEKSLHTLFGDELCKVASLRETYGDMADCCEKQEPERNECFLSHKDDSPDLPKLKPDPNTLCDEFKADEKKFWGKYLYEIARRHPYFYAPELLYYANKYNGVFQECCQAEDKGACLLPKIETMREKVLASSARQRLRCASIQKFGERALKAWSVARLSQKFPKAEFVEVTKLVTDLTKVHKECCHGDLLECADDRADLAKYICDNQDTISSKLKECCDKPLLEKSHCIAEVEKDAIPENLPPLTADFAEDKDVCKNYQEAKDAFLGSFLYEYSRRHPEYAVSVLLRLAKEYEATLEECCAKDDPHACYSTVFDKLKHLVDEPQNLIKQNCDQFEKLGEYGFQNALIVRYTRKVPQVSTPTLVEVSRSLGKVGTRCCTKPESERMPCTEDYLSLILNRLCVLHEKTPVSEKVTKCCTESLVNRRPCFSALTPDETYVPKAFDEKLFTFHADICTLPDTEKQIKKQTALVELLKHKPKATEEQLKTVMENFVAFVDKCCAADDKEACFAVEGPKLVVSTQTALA
Experimental: (§1) Cross species reactivity of germlined and non-germlined optimized antibodies were determined as follows: ELISA plates (Costar, Cat. #3590) were coated overnight with 1 μg/ml of rat, mouse, or human IL-22 or human IL-26 in PBS buffer. Plates were washed with PBST buffer (0.05% Tween20 in PBS) 3 times, then blocked with 1% BSA (Sigma A8918)/PBST for 1 hr at RT. Antibodies were added at 1 μg/ml, incubated 1 hr at 25° C. […] The plates were incubated for 1 hour at 25° C., then washed with PBST, and developed with TMB (KPL, Cat. #50-76-04). Reaction was stopped with 0.18 M H₂S0₄. Plates were read at OD 450 nm.

IL-26 = target: T2, IL-26; assay: ELISA: plate coated with 1 µg/ml human IL-26, IgG at 1 µg/ml, HRP anti-human IgG, A450
Experimental: as §1

human IL-22 [2] = target: T1, human IL-22; assay: cell-based or functional assay; remark: listed apart in the source

Row | IC50 of IgG in BaF3-IL-22 proliferation assay (human IL-22 [1]) [nM] | IC50 (pM) of germlined IgG in BaF3-IL-22R proliferation assay (human IL-22 [2]) [pM] | IC50 (pM) of non-germlined IgG in BaF3-IL-22R proliferation assay (human IL-22 [2]) [pM] | Binder | binding result (BSA) | binding result (IL-26)
1 | 0.126 |  |  | 367D04 IgG (non-germlined) (antibody, V domains shown, IgG) VH: EVQLVESGGGVVRPGGSLRLSCAASGFTFDDYGMNWVRQAPGKGLEWVSGVNWNGGTRDYAASVKGRFTISRDNAKNSLYLQMNSLRAEDTALYYCARGWYSGSPWSLGHWGRGTLVTVSS VL: QAVLTQPSSVSGSPGQSVTISCTGASGDVGAYNFVSWYQQHPGKTPKLIIYDVNKRPSGVSNRFSGSKSGNTASLTISRLQAEDESDYYCSSYTSRYTTEFGGGTKVTVLG | no binding (tested: 1 µg/ml (single concentration)) | no binding (tested: 1 µg/ml (single concentration))
2 |  | 118 |  | 087B03 germlined IgG (antibody, V domains shown) VH: EVQLVESGGGVVRPGGSLRLSCAASGFTFDDYGMNWVRQAPGKGLEWVSGVNWNGGTRDYAASVKGRFTISRDNAKNSLYLQMNSLRAEDTALYHCARGWYSGAAWNMGYWGRGTLVTVSS VL: QAALTQPASVSGSPGQSITISCTGASGDVGAYNFVSWYQQHPGKAPKLIIYDVNKRPSGVSNRFSGSKSGNTASLTISGLQAEDEADYYCSSYTSTFSVVFGGGTKLTVLG | no binding (tested: 1 µg/ml (single concentration)) | no binding (tested: 1 µg/ml (single concentration))
3 | 0.071 |  | 109 | 166B06 IgG (non-germlined) (antibody, V domains shown) VH: EVQLVQSGAEVKKPGASVKVSCQASGYTFSDYYIHWVRQTPGQGFEWMGWVNPDTGGTRYAQKFQGWVTMTRDMSNTTAYMELPRLRDDDTAVYYCARDLTGFDPFDIWGQGTLVTVSS VL: QSVLTQPPSVSVAPGKTATITCGGNNFRNKRVHWYQQRPGQAPVLVIYYDSDRPSGIPERFSGSRSGNTATLTISRVEAGDEADFYCQVWDLFNDNGVFGGGTKLTVLG |  | 
4 | 0.097 |  | 366 | 166G05 IgG (non-germlined) (antibody, V domains shown) VH: EVQLVQSGAEVKKPGASVKVSCQASGYTFSDYYIHWVRQTPGQGFEWMGWVNPDTGGTRYAQKFQGWVTMTRDMSNTTAYMELPRLRDDDTAVYYCARDLTGFDPFDIWGQGTLVTVSS VL: QSVLTQPPSVSVAPGKTATITCGGNNFRNKRVHWYQQRPGQAPVLVIYYDSDRPSGIPERFSGSRSGNTATLTISRVEAGDEADFYCQVWDFLTDSGSFGGGTKLTVLG |  | 
5 | 0.119 |  |  | 376B10 IgG (non-germlined) (antibody, V domains shown, IgG) VH: EVQLVQSGAEVKKPGASVKVSCQASGYTFSDYYIHWVRQTPGQGFEWMGWVNPDTGGTRYAQKFQGWVTMTRDMSNTTAYMELPGLRDDDTAVYYCARDLTGYDQYTAWGQGTLVTVSS VL: QSVLTQPPSVSVAPGKTATITCGGNNFRNKRVHWYQQRPGQAPVLVIYYDSDRPSGIPERFSGSRSGNTATLTISRVEAGDEADFYCSTFDPFTDRPLFGGGTKLTVLG | no binding (tested: 1 µg/ml (single concentration)) | no binding (tested: 1 µg/ml (single concentration))
6 | 0.053 | 53 |  | 356A11 germlined IgG (antibody, V domains shown) VH: QVQLVQSGAEVKKPGASVKVSCKASGYTFTNYYMHWVRQAPGQGLEWVGWINPYTGSAFYAQKFRGRVTMTRDTSISTAYMELSRLRSDDTAVYYCAREPEKFDSDDSDVWGRGTLVTVSS VL: QAVLTQPPSVSGAPGQRVTISCTGSSSNIGAGYGVHWYQQLPGTAPKLLIYGDSNRPSGVPDRFSGSKSGTSASLAITGLQAEDEADYYCQSYDNSLSGYVFGGGTQLTVLG | no binding (tested: 1 µg/ml (single concentration)) | no binding (tested: 1 µg/ml (single concentration))
7 | 0.083 |  | 108 | 062A09 IgG (non-germlined) (antibody, V domains shown) VH: QVQLVESGAEVKKPGASVKVSCKASGYTFTSYGISWVRQAPGQGLEWMGWVSAYTGNTNYAQKFQGRVTMTTDTSTSTAYMELRGLRSDDTAVYYCARDRGYYDAFDIWGQGTLVTVSS VL: DIQMTQSPSTLSASIGDRVTITCRASEGIYHWLAWYQQKPGKAPKLLIYKASSLASGAPSRFSGSGFGTDFTLTISSLQPDDFATYYCQQMGEYNATIGGGTKLEIKR |  | 

Further lines, the binder ahead of its results:

Row | Binder | IC50 of IgG in BaF3-IL-22 proliferation assay (human IL-22 [1]) [nM] | IC50 (pM) of germlined IgG in BaF3-IL-22R proliferation assay (human IL-22 [2]) [pM] | IC50 (pM) of non-germlined IgG in BaF3-IL-22R proliferation assay (human IL-22 [2]) [pM] | binding result (BSA) | binding result (IL-26)
8 | 375G06 IgG (non-germlined) (antibody, V domains shown, IgG) VH: EVQLVQSGAEVKKPGASVKVSCQASGYTFSDYYIHWVRQTPGQGFEWMGWVNPDTGGTRYAQKFQGWVTMTRDMSNTTAYMELPRLRDDDTAVYYCARDLTGYDYYDRWGQGTLVTVSS VL: QSVLTQPPSMSVAPGKTATITCGGNNFRNKRVHWYQQRPGQAPVLVIYYDSDRPSGIPERFSGSRSGNTATLTISRVEAGDEADFYCQVWDFLADEAMFGGGTKLTVL | 0.1 |  |  | no binding (tested: 1 µg/ml (single concentration)) | no binding (tested: 1 µg/ml (single concentration))
9 | 354A08 germlined IgG (antibody, V domains shown) VH: QVQLVQSGAEVKKPGASVKVSCKASGYTFTDYYMHWVRQAPGQGLEWVGWINPYTGGAFYAQKFRGRVTMTRDTSISTAYMELSRLRSDDTAVYYCAREPERFGDSTGQVWGRGTLVTVSS VL: QAVLTQPPSVSGAPGQRVTISCTGSSSNIGAGYGVHWYQQLPGTAPKLLIYGNSNRPSGVPDRFSGSKSGTSASLAITGLQAEDEADYYCYHWDKEQSGYVFGGGTQLTVLG | 0.079 | 79 |  | no binding (tested: 1 µg/ml (single concentration)) | no binding (tested: 1 µg/ml (single concentration))
10 | 166B06 germlined IgG (antibody, V domains shown) VH: QVQLVQSGAEVKKPGASVKVSCKASGYTFSDYYIHWVRQAPGQGLEWMGWVNPDTGGTRYAQKFQGRVTMTRDMSISTAYMELSRLRSDDTAVYYCARDLTGFDPFDIWGQGTLVTVSS VL: SSVLTQPPSVSVAPGKTARITCGGNNFRNKRVHWYQQKPGQAPVLVIYYDSDRPSGIPERFSGSRSGNTATLTISRVEAGDEADYYCQVWDLFNDNGVFGGGTKLTVLG |  | 169 |  | no binding (tested: 1 µg/ml (single concentration)) | no binding (tested: 1 µg/ml (single concentration))
11 | 166G05 germlined IgG (antibody, V domains shown) VH: QVQLVQSGAEVKKPGASVKVSCKASGYTFSDYYIHWVRQAPGQGLEWMGWVNPDTGGTRYAQKFQGRVTMTRDMSISTAYMELSRLRSDDTAVYYCARDLTGFDPFDIWGQGTLVTVSS VL: SSVLTQPPSVSVAPGKTARITCGGNNFRNKRVHWYQQKPGQAPVLVIYYDSDRPSGIPERFSGSRSGNTATLTISRVEAGDEADYYCQVWDFLTDSGSFGGGTKLTVLG |  | 109 |  | no binding (tested: 1 µg/ml (single concentration)) | no binding (tested: 1 µg/ml (single concentration))
12 | 062A09 (antibody, V domains shown, The list MOLECULES holds only the non-germlined 062A09 IgG; also called 062A09 germlined IgG) VH: QVQLVQSGAEVKKPGASVKVSCKASGYTFTSYGISWVRQAPGQGLEWMGWVSAYTGNTNYAQKFQGRVTMTTDTSTSTAYMELRSLRSDDTAVYYCARDRGYYDAFDIWGQGTLVTVSS VL: DIQMTQSPSTLSASVGDRVTITCRASEGIYHWLAWYQQKPGKAPKLLIYKASSLASGVPSRFSGSGSGTEFTLTISSLQPDDFATYYCQQMGEYNATFGGGTKVEIKR |  |  |  | no binding (tested: 1 µg/ml (single concentration)) | no binding (tested: 1 µg/ml (single concentration))
